Test results reported in the DeepSol protein solubility set.

Test: soluble on expression in E. coli; label from the status in PepcDB or PDB records

Sequence | soluble on expression in E. coli
MGSDKIHHHHHHMTPTADIWFKDTLAAHFTRDGDQTTFSYTADYAGPPIATSLPINSEPVITRSGAIPPFFAGLLPEGRRLSSLRRNIKASADDELSLLLAVGADPVGAVAIFPHGENPQPAPPTVDFDDELDFSAALTESGIADPVALAGVQDKASARTIAVPVASDAILKLSPPEYPYLVENEAACYQLLTKNKLRIELSKVEVLHDKHGRSGLLVHRFDRTPKGKIPVEDAGQVLGIWPADKYLVSYEDIAQALTKVCASPILAMRNLAFQIAVAWLSGNGDLHAKNISIINKGRGFEISPIYDIPATAVYGDTTMALEIQGSKKDLSQKKFLKFCTSIGLPEKTAMSVANAALLATENAAETILASGNFDTRMNRDLARVLKHRRSAWGA | not soluble
MAHHHHHHVDDDDKMFSTQVNSSLTSPTGRGSMAAPSLHPSLGPGIGSPGQLHSPISTLSSPINGMGPPFSVISSPMGPHSMSVPTTPTLGFSTGSPQLSSPMNPVSSSEDIKPPLGLNGVLKVPAHPSGNMASFTKHICAICGDRSSGKHYGVYSCEGCKGFFKRTVRKDLTYTCRDNKDCLIDKRQRNRCQYCRYQKCLAMGMKREAVQEERQRGKDRNENEVESTSSANEDMPVERILEAELAVEPKTETYVEANMGLNPSSPNDPVTNICQAADKQLFTLVEWAKRIPHFSELPLDDQVILLRAGWNELLIASFSHRSIAVKDGILLATGLHVHRNSAHSAGVGAIFDRVLTELVSKMRDMQMDKTELGCLRAIVLFNPDSKGLSNPAEVEALREKVYASLEAYCKHKYPEQPGRFAKLLLRLPALRSIGLKCLEHLFFFKLIGDTPIDTFLMEMLEAPHQMT | soluble
MGSDKIHHHHHHMKSLLAIYPGSIVSEELCIREGCLCFFDESNQRYISIPKTEISEKEVLVLQSFLTPADEGNQLSMKSPEENKWFSFLFSRGELPAYIKKRTRFVHFHLFGKIERTSFTEAVRHFWPVSFVIVWIHEDRGVIVEQESEAAAEKDELESLAKVLESDFYFSVRFYAGRFYEPDECLRKHYAREQAYFLFAEKRLPQVQSVTFEMIFPFLLLETEKEKLETLLSEEAELLFGSESELRKTIKLFIENNSNVTLTAKKLHLHRNSLQYRIDKFIERSGIDIKSYKGALLAYFICLQNESSE | not soluble
MNLDDKSLFLDAMEDVQPLKRATDVHWHPTRNQRAPQRIDTLQLDNFLTTGFLDIIPLSQPLEFRREGLQHGVLDKLRSGKYPQQASLNLLRQPVEECRKMVFSFIQQALADGLRNVLIIHGKGRDDKSHANIVRSYVARWLTEFDDVQAYCTALPHHGGSGACYVALRKTAQAKQENWERHAKRSR | soluble
MVLRRDFLTWCNETLQTALFKDYAPNGLQVEGREYIGKIVTSVTASRAAIDFAVEQKADLLLVHHGMFWKNELPTVTGWKKERIAALLRHDINMAGYHLPLDAHPTLGNNAQLADRLGFATEKRFGEQNLLNSGSLKQAKTLGALAAHIETVLQRKPVVIGKPEREIRRVAWCSGGAQGFFQTAIDEGVDLYLTGEISEAQYHLANETGTAFISAGHHATERYGVRALAESAAEVFGLEVCHFDENNPALEHHHHHH | soluble
MTDEKKKGVIFDIQRWSLHDGPGIRTNVFFKGCPLSCQWCSNPESQEFCREPALFGDKCIHCLSCVEHCPHGAIHTSDPWIRLDYEICRGRCSRGAEQENAFCCTKACYAQALTVMGEVMTADMVLEEVMRDEGIYRSSGGGVTMTGGEPLAQPEFLLELLTAAKERGLHTVMESSMFAEWDKIQACLPYLDVLFMDMKLLPEEKHVKYTGVSNQIILDNIRRAAAYARTHRLELAVRTPVIPGINDTSGDIAAMADWIKKHLPGVERYELLPYHRLGRGKYRNIGREYQLGDIVPPSKEKMKELEAVVSKLGLRRE | not soluble
MGSDKIHHHHHHMSVVIGYYGKNGAVIAGDKRNLLFNGIESNRAKLEEVLYSGEIKNDEELFKKASEFEVTVHINDTREKVKSLGNLLSGEVVSIGKDSKRRRMYLTKEKCAIIDIENDQITNKSVKTGSGIVVFGNRYVKHFVESEIKKHVQKLLKMSAREIRDLFEKILKNIENATLSDTFEYYVVEAGEPEFEKAVNKDLDDLFNYRHDLSIKMAEMQILTMIAEKIVKIGDVGVIKNGTLVLYDEFLAINKICPEPEIYSEIEITGEFIEGDIITIDNESLKVKRTGSPVAVQKIICKK | not soluble
